Assay results taken from US20230212285A1 (published 2023).
Substitutions are numbered along the chain they refer to. Read-outs that look alike come from different tables or passages of the source.

B1: MH1 IgG1-3M (antibody, V domains shown)
VH: QVQLVQSGAEVKKPGASVKVSCKASGYTFTDYYMNWVRQAPGQGLEWMGRIYPGSGNTYYAQKFQGRVTMTRDTSTSTVYMELSSLRSEDTAVYYCARGVYYYDYWGQGTLVTVSS
VL: DIQMTQSPSSLSASVGDRVTITCRASQGIRTNLAWFQQKPGKAPKSLIYAASSLQSGVPSRFSGSGSGTDFTLTISSLQPEDFATYYCQQYNSYPRTFGGGTKVEIK
B2: C-A7 (antibody, human IgG1, V domains shown)
VH: B1 VH with M48I, Y103F, Y105S
VL: B1 VL with I29V, T31N, L33V, A50Y
notes: graft frameworks; substitutions derived; human IgG1; also called C-KIT-C-A7
B3: C-B12 (antibody, human IgG1, V domains shown)
VH: B1 VH with Y102E, Y103F
VL: B1 VL with I29V, T31N, S53Y, L54R
notes: graft frameworks; substitutions derived; human IgG1; also called C-KIT-C-B12
B4: D-A10 (antibody, human IgG1, V domains shown)
VH: B1 VH with Y103F, Y105T
VL: B1 VL with I29V, L54R
notes: graft frameworks; substitutions derived; human IgG1; also called C-KIT-D-A10
B5: E-E10 (antibody, human IgG1, V domains shown)
VH: B1 VH with Y101W, Y103F
VL: B1 VL with I29V, L33V, A50S
notes: graft frameworks; substitutions derived; human IgG1; also called C-KIT-E-E10
B6: F-C5 (antibody, human IgG1, V domains shown)
VH: B1 VH with Y103F, Y105E
VL: B1 VL with I29V, L54R
notes: human IgG1; also called C-KIT-F-C5
B7: F-F2 (antibody, human IgG1, V domains shown)
VH: B1 VH with Y103Q
VL: B1 VL with I29V, L33V, L54R
notes: graft frameworks; substitutions derived; human IgG1; also called C-KIT-F-F2
B8: MH5 IgG1 (antibody, V domains shown)
VH: B1 VH
VL: B1 VL with A50S, N92A, S93N
notes: human IgG1; also called C-KIT-MH5
B9: MH5.1 (antibody, human IgG1, V domains shown)
VH: B1 VH with D31N, S55T, Y101W
VL: B1 VL with N92A, S93N
notes: graft frameworks; substitutions derived; human IgG1; also called C-KIT-MH5.1
B10: MH5.2 (antibody, human IgG1, V domains shown)
VH: B1 VH with Y32F, S55T, Y101W
VL: B1 VL with N92A, S93N
notes: graft frameworks; substitutions derived; human IgG1; also called C-KIT-MH5.2
B11: MH5.23 (antibody, human IgG1, V domains shown)
VH: B1 VH with Y32F, G54A, Y101W, Y103F, Y105S
VL: B1 VL with N92A, S93N
notes: graft frameworks; substitutions derived; human IgG1; also called C-KIT-MH5.23
B12: MH5.24 (antibody, human IgG1, V domains shown)
VH: B1 VH with Y32F, G54A, Y101W, Y103F, Y105T
VL: B1 VL with N92A, S93N
notes: graft frameworks; substitutions derived; human IgG1; also called C-KIT-MH5.24
B13: MH5.35 (antibody, human IgG1, V domains shown)
VH: B1 VH with D31N, G54A, Y101W, Y103F, Y105T
VL: B1 VL with N92A, S93N
notes: graft frameworks; substitutions derived; human IgG1; also called C-KIT-MH5.35
B14: MH11 (antibody, human IgG1, V domains shown)
VH: B1 VH
VL: B1 VL with S93A
notes: graft frameworks; substitutions derived; human IgG1; also called C-KIT-MH11
B15: MH5-DI IgG1-3M (antibody, V domains shown)
VH: B1 VH
VL: B1 VL with N92A, S93N
B16: MH5.22 (antibody, human IgG1, V domains shown)
VH: B1 VH with Y32F, G54A, Y101W
VL: B1 VL with N92A, S93N
notes: graft frameworks; substitutions derived; human IgG1; also called C-KIT-MH5.22
B17: MH5.34 (antibody, human IgG1, V domains shown)
VH: B1 VH with D31N, G54A, Y101W, Y103F, Y105S
VL: B1 VL with N92A, S93N
notes: graft frameworks; substitutions derived; human IgG1; also called C-KIT-MH5.34
B18: h37M IgG1 (antibody)
heavy: not shown
VL: DIVMTQSPSSLSASVGDRVTITCKASQNVRTNVAWYQQKPGKAPKALIYSASYRYSGVPDRFTGSGSGTDFTLTISSLQPEDFADYFCQQYNSYPRTFGGGTKVEIK
notes: Humanized 37M, human IgG1; Terbium-labelled as tracer in HTRF; also called C-KIT-h37M; IgG1-h37M; copies: 2 + 2
B19: E-C7 (antibody, human IgG1, V domains shown)
VH: B1 VH
VL: B1 VL with A50S
notes: human IgG1; also called C-KIT-E-C7
B20: E-C2 (antibody, human IgG1, V domains shown)
VH: B1 VH with Y103L
VL: B1 VL with L33V, F36L, A50S, S53Y, L54R
notes: human IgG1; also called C-KIT-E-C2
B21: MH1 IgG1 (antibody, V domains shown)
VH: B1 VH
VL: B1 VL
notes: human IgG1; also called IgG1-MH1; C-KIT-MH1

Columns and labels:
[1] = biological target: cynomolgus C-KIT on stably transfected CHO-K1 cells (cynomolgus monkey); assay: cell-based or functional assay
[2] = biological target: T1, cynomolgus monkey C-KIT-Fc protein (cynomolgus monkey); assay: HTRF competition vs terbium-labelled h37M IgG1
T1 construct: also called cyno C-KIT-Fc; cyno C-KIT

[3] = biological target: T1, cynomolgus monkey C-KIT-Fc protein; assay: direct ELISA, IgG at 1 µg/ml
[4] = biological target: T1, cynomolgus monkey C-KIT-Fc protein; assay: HTRF competition vs terbium-labelled h37M IgG1; remark: listed apart in the source
[5] = biological target: T2, human FcγRI, His6-tagged (human, UniProt P12314 16-288); assay: SPR, 1:1 kinetic
T2 construct: also called FcG RI
T2 sequence (P12314 16-288 limits assumed): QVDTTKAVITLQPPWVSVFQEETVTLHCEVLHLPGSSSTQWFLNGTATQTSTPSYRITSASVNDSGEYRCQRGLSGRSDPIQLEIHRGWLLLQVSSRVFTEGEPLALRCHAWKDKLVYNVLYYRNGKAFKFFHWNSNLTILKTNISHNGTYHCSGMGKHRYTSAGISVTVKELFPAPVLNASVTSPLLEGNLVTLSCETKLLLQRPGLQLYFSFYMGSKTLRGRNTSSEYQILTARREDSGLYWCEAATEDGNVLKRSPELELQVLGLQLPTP
Protocol: (§1) Interaction affinities for IgGs were determined by surface plasmon resonance using a BIACORE® T200 instrument. For most analyses, His6-tagged FcγRI, FcγRIIa (167R and 167H variants), FcγRIIb, FcγRIIIa (176F and 176 V variants), and FcγRIIIb receptors (all Sino Biological) were captured on a CM5 sensor chip coated with an anti-HIS antibody by standard amine coupling. Receptor-specific formats of analyses were then applied, as below.
Regeneration with 2× injections glycine pH 1.5 and analysis using 1:1 fit.

[6] = biological target: T3, human FcγRIIIa 176V variant, His6-tagged (human, UniProt P08637 17-208); assay: SPR, steady state
T3 construct: also called FcG RIIIa (176V)
T3 sequence (P08637 other isoform, or with tags, fused parts or gaps mutant limits assumed): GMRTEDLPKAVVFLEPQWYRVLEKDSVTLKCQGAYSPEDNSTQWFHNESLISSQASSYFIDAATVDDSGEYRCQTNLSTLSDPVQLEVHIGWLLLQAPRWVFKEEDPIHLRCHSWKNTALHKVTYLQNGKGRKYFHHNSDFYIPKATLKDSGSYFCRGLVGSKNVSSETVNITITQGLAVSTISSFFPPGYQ
Protocol: as §1

[7] = biological target: T4, human FcγRIIIb, His6-tagged (human, UniProt O75015 17-200); assay: SPR, steady state
T4 construct: also called FcG RIIIb
T4 sequence (O75015 17-200 limits assumed): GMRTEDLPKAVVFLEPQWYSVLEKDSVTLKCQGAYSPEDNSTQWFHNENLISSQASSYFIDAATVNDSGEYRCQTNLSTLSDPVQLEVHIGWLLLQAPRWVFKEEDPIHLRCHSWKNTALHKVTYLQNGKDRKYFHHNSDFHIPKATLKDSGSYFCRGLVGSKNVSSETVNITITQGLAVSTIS
Protocol: as §1

[8] = biological target: T5, human FcγRIIa 167H variant, His6-tagged (human, UniProt P12318 34-218); assay: SPR, steady state
T5 construct: also called FcG RIIa (167H)
T5 sequence (looked up): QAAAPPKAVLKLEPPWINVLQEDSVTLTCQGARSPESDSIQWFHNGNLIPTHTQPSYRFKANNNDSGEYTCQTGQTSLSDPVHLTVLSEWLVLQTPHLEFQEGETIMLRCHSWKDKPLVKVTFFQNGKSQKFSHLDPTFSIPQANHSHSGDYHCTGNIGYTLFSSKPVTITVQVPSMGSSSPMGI
Protocol: as §1

[9] = biological target: T6, human FcγRIIa 167R variant, His6-tagged (human, UniProt P12318 34-218); assay: SPR, steady state
T6 construct: also called FcG RIIa (167R)
T6 sequence (looked up): T5 sequence (looked up) with H134R
Protocol: as §1

[10] = biological target: T7, human FcγRIIb, His6-tagged (human, UniProt P31994 43-217); assay: SPR, steady state
T7 construct: also called FcG RIIb
T7 sequence (looked up): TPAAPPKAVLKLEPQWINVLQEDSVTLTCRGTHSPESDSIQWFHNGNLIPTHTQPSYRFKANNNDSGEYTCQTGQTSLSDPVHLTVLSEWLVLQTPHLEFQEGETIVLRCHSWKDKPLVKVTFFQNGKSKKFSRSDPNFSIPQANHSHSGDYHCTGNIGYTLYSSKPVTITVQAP
Protocol: as §1

[11] = biological target: T8, human FcγRIIIa 176F variant, His6-tagged (human, UniProt P08637 17-208); assay: SPR, steady state
T8 construct: also called FcG RIIIa (176F)
T8 sequence (P08637 17-208 limits assumed, change not shown): as the sequence (P08637 other isoform, or with tags, fused parts or gaps mutant limits assumed) above, with V160F counted along it
Protocol: as §1

[12] = biological target: T9, human FcRn (human, UniProt P55899 24-297, limits assumed); assay: SPR, steady state, pH 6
T9 construct: also called hFcRn
T9 sequence (P55899 24-297 limits assumed, form in doubt): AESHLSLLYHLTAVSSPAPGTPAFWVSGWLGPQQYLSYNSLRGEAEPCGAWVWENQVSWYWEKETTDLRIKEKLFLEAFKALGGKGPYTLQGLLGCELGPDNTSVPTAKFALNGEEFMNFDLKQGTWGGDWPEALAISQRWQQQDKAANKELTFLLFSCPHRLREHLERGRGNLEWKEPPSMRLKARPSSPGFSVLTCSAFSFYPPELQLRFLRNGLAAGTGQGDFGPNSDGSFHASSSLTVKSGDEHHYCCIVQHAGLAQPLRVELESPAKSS
Protocol: The interactions between monomeric IgG and FcRn are relatively low affinity and pH-sensitive interactions, so ‘steady state’ affinity analyses were performed under the following conditions: A CM5 chip was directly coupled with hFcRn in sodium acetate pH 5.5 using standard amine chemistry. Running buffer was PBS 0.05% P20+150 mM NaCl (pH 6.0 or pH 7.4), flow rate 30 μl/min, 5 point three-fold dilutions of purified antibodies from 3000 nM to 37.0 nM applied with an association time of 18s, dissociation time 100 s.

Binder | IC50 [2] [µg/mL] | IC50 [4] [µg/mL] | also measured
B1 | – | – | Cyno C-KIT CHO FabZAP IC50 (pM) [1]: 14 pM
B2 | 0.081 | – | –
B3 | 0.166 | – | –
B4 | 0.059 | – | –
B5 | 0.097 | – | –
B6 | 0.079 | – | –
B7 | 0.121 | – | –
B8 | 0.036 | 0.058 | OD450 nm [3]: > 2 OD450 nm
B9 | – | 0.633 | –
B10 | – | 0.254 | –
B11 | – | 3.26 | –
B12 | – | 2.74 | –
B13 | – | 0.785 | –
B14 | 0.101 | – | –
B15 | – | – | Cyno C-KIT CHO FabZAP IC50 (pM) [1]: 13.5 pM
B16 | – | 0.164 | OD450 nm [3]: > 2 OD450 nm
B17 | – | 0.532 | –
B18 | 0.035 | 0.036 | Kd [5]: 1.06 nM; Kd [6]: 41.1 nM; Kd [7]: 249 nM; Kd [8]: 512 nM; Kd [9]: 447 nM; Kd [10]: 1440 nM; Kd [11]: 82 nM; OD450 nm [3]: > 2 OD450 nm; Kd [12]: 1240 nM
B19 | 0.051 | – | OD450 nm [3]: > 2 OD450 nm
B20 | – | – | OD450 nm [3]: > 2 OD450 nm
B21 | – | – | OD450 nm [3]: > 2 OD450 nm
